Experimental data published in PMC9454918.

Target: recombinant goose FST protein (148-amino-acid peptide of goose follistatin, residues 93-240) (goose)
Assay: SDS-PAGE and Western blot; purified recombinant protein on an SDS-PAGE gel stained with Coomassie blue; Western blot with an anti-His tag antibody

stoichiometry N: 2
Substance: recombinant goose FST protein (148-amino-acid peptide of goose follistatin, residues 93-240) (domain or fragment)
